Measurements reported in patent US20200199204A1.

Assays:
Assay in all cases: cell-based or functional assay
[1] = molecular target: HIV-1 Env of 0260.v5.c36 (HIV-1)
[2] = molecular target: HIV-1 Env of 191821.E6.1 (HIV-1)
[3] = molecular target: HIV-1 Env of 3016.V5.c36 (HIV-1)
[4] = molecular target: HIV-1 Env of 6405.v4.c34 (HIV-1)
[5] = molecular target: HIV-1 Env of 6535.3 (HIV-1)
[6] = molecular target: HIV-1 Env of 96ZM651.02 (HIV-1)
[7] = molecular target: HIV-1 Env of AC10.29 (HIV-1)
[8] = molecular target: HIV-1 Env of BG505.w6m (HIV-1)
[9] = molecular target: HIV-1 Env of C1080.c3 (HIV-1)
[10] = molecular target: HIV-1 Env of CAAN.A2 (HIV-1)
[11] = molecular target: HIV-1 Env of CAP210.E8 (HIV-1)
[12] = molecular target: HIV-1 Env of CAP244.D3 (HIV-1)
[13] = molecular target: HIV-1 Env of CAP256.PI (HIV-1)
[14] = molecular target: HIV-1 Env of CAP256.SU (HIV-1)
[15] = molecular target: HIV-1 Env of CAP45.G3 (HIV-1)
[16] = molecular target: HIV-1 Env of CM244.ec1 (HIV-1)
[17] = molecular target: HIV-1 Env of CNE3 (HIV-1)
[18] = molecular target: HIV-1 Env of DU156.12 (HIV-1)
[19] = molecular target: HIV-1 Env of DU172.17 (HIV-1)
[20] = molecular target: HIV-1 Env of DU422.01 (HIV-1)
[21] = molecular target: HIV-1 Env of KER2008.12 (HIV-1)
[22] = molecular target: HIV-1 Env of KER2018.11 (HIV-1)
[23] = molecular target: HIV-1 Env of MB201 (HIV-1)
[24] = molecular target: HIV-1 Env of MB539.2B7 (HIV-1)
[25] = molecular target: HIV-1 Env of PVO.04 (HIV-1)
[26] = molecular target: HIV-1 Env of Q168.a2 (HIV-1)
[27] = molecular target: HIV-1 Env of Q23.17 (HIV-1)
[28] = molecular target: HIV-1 Env of Q259.d2.17 (HIV-1)
[29] = molecular target: HIV-1 Env of Q461.e2 (HIV-1)
[30] = molecular target: HIV-1 Env of Q769.d22 (HIV-1)
[31] = molecular target: HIV-1 Env of Q842.d12 (HIV-1)
[32] = molecular target: HIV-1 Env of QH0692.42 (HIV-1)
[33] = molecular target: HIV-1 Env of REJO.67 (HIV-1)
[34] = molecular target: HIV-1 Env of RHPA.7 (HIV-1)
[35] = molecular target: HIV-1 Env of RW020.2 (HIV-1)
[36] = molecular target: HIV-1 Env of SC422.8 (HIV-1)
[37] = molecular target: HIV-1 Env of TH976.17 (HIV-1)
[38] = molecular target: HIV-1 Env of THRO.18 (HIV-1)
[39] = molecular target: HIV-1 Env of TRJO.58 (HIV-1)
[40] = molecular target: HIV-1 Env of TRO.11 (HIV-1)
[41] = molecular target: HIV-1 Env of UG037.8 (HIV-1)
[42] = molecular target: HIV-1 Env of WITO.33 (HIV-1)
[43] = molecular target: HIV-1 Env of ZM109.4 (HIV-1)
[44] = molecular target: HIV-1 Env of ZM135.10a (HIV-1)
[45] = molecular target: HIV-1 Env of ZM197.7 (HIV-1)
[46] = molecular target: HIV-1 Env of ZM214.15 (HIV-1)
[47] = molecular target: HIV-1 Env of ZM233.6 (HIV-1)
[48] = molecular target: HIV-1 Env of ZM249.1 (HIV-1)
[49] = molecular target: HIV-1 Env of ZM53.12 (HIV-1)

## CAP256-VRC26.18 (antibody)
[1]
  IC50: > 50 µg/mL
[2]
  IC50: 10.4 µg/mL
[3]
  IC50: 0.028 µg/mL
[4]
  IC50: > 50 µg/mL
[5]
  IC50: > 50 µg/mL
[6]
  IC50: > 50 µg/mL
[7]
  IC50: > 50 µg/mL
[8]
  IC50: 1.9 µg/mL
[9]
  IC50: 2.15 µg/mL
[10]
  IC50: > 50 µg/mL
[11]
  IC50: 0.019 µg/mL
[12]
  IC50: > 50 µg/mL
[13]
  IC50: > 50 µg/mL
[14]
  IC50: 0.008 µg/mL
[15]
  IC50: > 50 µg/mL
[16]
  IC50: 1.42 µg/mL
[17]
  IC50: > 50 µg/mL
[18]
  IC50: > 50 µg/mL
[19]
  IC50: > 50 µg/mL
[20]
  IC50: 5.4 µg/mL
[21]
  IC50: > 50 µg/mL
[22]
  IC50: 0.03 µg/mL
[23]
  IC50: > 50 µg/mL
[24]
  IC50: > 50 µg/mL
[25]
  IC50: > 50 µg/mL
[26]
  IC50: > 50 µg/mL
[27]
  IC50: 35 µg/mL
[28]
  IC50: 5.31 µg/mL
[29]
  IC50: > 50 µg/mL
[30]
  IC50: > 50 µg/mL
[31]
  IC50: > 50 µg/mL
[32]
  IC50: > 50 µg/mL
[33]
  IC50: > 50 µg/mL
[34]
  IC50: > 50 µg/mL
[35]
  IC50: > 50 µg/mL
[36]
  IC50: > 50 µg/mL
[37]
  IC50: > 50 µg/mL
[38]
  IC50: > 50 µg/mL
[39]
  IC50: > 50 µg/mL
[40]
  IC50: > 50 µg/mL
[41]
  IC50: > 50 µg/mL
[42]
  IC50: > 50 µg/mL
[43]
  IC50: > 50 µg/mL
[44]
  IC50: > 50 µg/mL
[45]
  IC50: 1.89 µg/mL
[46]
  IC50: > 50 µg/mL
[47]
  IC50: 0.037 µg/mL
[48]
  IC50: > 50 µg/mL
[49]
  IC50: 0.01 µg/mL

## CAP256-VRC26.19 (antibody)
[1]
  IC50: > 50 µg/mL
[2]
  IC50: 29.2 µg/mL
[3]
  IC50: 0.039 µg/mL
[4]
  IC50: > 50 µg/mL
[5]
  IC50: > 50 µg/mL
[6]
  IC50: > 50 µg/mL
[7]
  IC50: 2.98 µg/mL
[8]
  IC50: 0.13 µg/mL
[9]
  IC50: 14.5 µg/mL
[10]
  IC50: > 50 µg/mL
[11]
  IC50: 0.025 µg/mL
[12]
  IC50: > 50 µg/mL
[13]
  IC50: > 50 µg/mL
[14]
  IC50: 0.015 µg/mL
[15]
  IC50: > 50 µg/mL
[16]
  IC50: 0.024 µg/mL
[17]
  IC50 (neutralization, TZM-bl): > 50 µg/mL
[18]
  IC50: 1.34 µg/mL
[19]
  IC50: > 50 µg/mL
[20]
  IC50: 0.057 µg/mL
[21]
  IC50: > 50 µg/mL
[22]
  IC50: 0.005 µg/mL
[23]
  IC50: > 50 µg/mL
[24]
  IC50: 0.431 µg/mL
[25]
  IC50: 1.1 µg/mL
[26]
  IC50: 7.04 µg/mL
[27]
  IC50: 0.233 µg/mL
[28]
  IC50: 2.16 µg/mL
[29]
  IC50: 15.6 µg/mL
[30]
  IC50: > 50 µg/mL
[31]
  IC50: 0.16 µg/mL
[32]
  IC50: > 50 µg/mL
[33]
  IC50: > 50 µg/mL
[34]
  IC50: > 50 µg/mL
[35]
  IC50: > 50 µg/mL
[36]
  IC50: > 50 µg/mL
[37]
  IC50 (neutralization, TZM-bl): > 50 µg/mL
[38]
  IC50: > 50 µg/mL
[39]
  IC50: > 50 µg/mL
[40]
  IC50: > 50 µg/mL
[41]
  IC50: > 50 µg/mL
[42]
  IC50: > 50 µg/mL
[43]
  IC50: 2.82 µg/mL
[44]
  IC50: > 50 µg/mL
[45]
  IC50: 0.135 µg/mL
[46]
  IC50: > 50 µg/mL
[47]
  IC50: 0.009 µg/mL
[48]
  IC50: 0.076 µg/mL
[49]
  IC50: 0.02 µg/mL
